The text below walks through data of the supplement of paper PMC9112550, “Optimization of the antimicrobial peptide Bac7 by deep mutational scanning” (BMC Biology, 2022).
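Further: peptides expressed intracellularly from a pBAD plasmid library in pooled LB shake-flask culture, induced with 0.3% L-arabinose, DNA abundance read by NGS, three biological replicates, DESeq2 with apeglm shrinkage.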

This series has as its system Escherichia coli TOP10. The series is described as follows: shrunken log2 fold change of peptide-encoding DNA abundance (4.5 h post-induction vs induction); higher = less antimicrobial activity (less host growth inhibition). The following applies: time post-induction: 4.5 h; library: site-saturation at positions 5, 18, 19, 20.
For RRIRPRPPRLPRPRPRPCTIPRP, the “shrunken log2 fold change” value is -0.536.
With RRIRFRPPRLPRPRPRPIEHPRP the figure was -0.215; with RRIRVRPPRLPRPRPRPTYTPRP, -0.172; with RRIRPRPPRLPRPRPRPEVGPRP, 0.353.
In the case of RRIRSRPPRLPRPRPRPMFFPRP, the “shrunken log2 fold change” value was -0.274.
In the case of RRIRNRPPRLPRPRPRPHQFPRP it was -0.000243; in that of RRIRHRPPRLPRPRPRPVQMPRP, 0.0393; in that of RRIRHRPPRLPRPRPRPVYIPRP, -0.0204.
In the case of RRIRDRPPRLPRPRPRPMECPRP it was 0.0176.
In the case of RRIRVRPPRLPRPRPRPFKRPRP it was -0.165; in that of RRIRQRPPRLPRPRPRPVECPRP, 0.0104.
On to RRIRMRPPRLPRPRPRPQMWPRP, for which the “shrunken log2 fold change” value was found to be 0.635.
RRIRNRPPRLPRPRPRPSHTPRP: the “shrunken log2 fold change” value is -0.412.
In the case of RRIRKRPPRLPRPRPRPRKSPRP it was 0.727; in that of RRIRLRPPRLPRPRPRPIMMPRP, -0.0614; in that of RRIRSRPPRLPRPRPRPNGKPRP, -0.437.
With RRIRKRPPRLPRPRPRPGNAPRP the figure was 0.418; with RRIRGRPPRLPRPRPRPDLKPRP, 0.0305.
Consider RRIRCRPPRLPRPRPRPAHNPRP, for which the “shrunken log2 fold change” value was -0.151.
In the case of RRIRRRPPRLPRPRPRPYRHPRP it was -0.265.
As for RRIRMRPPRLPRPRPRPFTQPRP, the “shrunken log2 fold change” value was 0.215.
For the sequence RRIRYRPPRLPRPRPRPFIGPRP, the “shrunken log2 fold change” value was -1.58.
With RRIRMRPPRLPRPRPRPSIDPRP the figure was 0.789; with RRIRIRPPRLPRPRPRPICYPRP, -0.325.
Consider RRIRNRPPRLPRPRPRPRHGPRP, for which the “shrunken log2 fold change” value was -0.0314.
In the case of RRIRCRPPRLPRPRPRPNIHPRP it was -0.607.
With RRIRHRPPRLPRPRPRPIGGPRP the figure was 0.111.
For RRIRCRPPRLPRPRPRPFEWPRP, the “shrunken log2 fold change” value is -0.0143.
With RRIRCRPPRLPRPRPRPEGYPRP the figure was 0.461; with RRIRCRPPRLPRPRPRPPMYPRP, -0.156.
With RRIRCRPPRLPRPRPRPAWLPRP the figure was 0.303.
Consider RRIRCRPPRLPRPRPRPRCYPRP, for which the “shrunken log2 fold change” value is -0.532.
Regarding RRIRDRPPRLPRPRPRPNEVPRP, the “shrunken log2 fold change” value stood at 0.0348.
In the case of RRIRRRPPRLPRPRPRPTWVPRP it was 0.275; in that of RRIRERPPRLPRPRPRPDFTPRP, -0.233.
With RRIRQRPPRLPRPRPRPQRWPRP the figure was 0.178.
For RRIRLRPPRLPRPRPRPCSRPRP, the “shrunken log2 fold change” value was determined as 0.06.
In the case of RRIRQRPPRLPRPRPRPCMSPRP it was -0.234.
With RRIRQRPPRLPRPRPRPPVHPRP the figure was 0.164; with RRIRKRPPRLPRPRPRPYSFPRP, -0.119.
With RRIRPRPPRLPRPRPRPLVVPRP the figure was -0.0898; with RRIRTRPPRLPRPRPRPHACPRP, 0.158; with RRIRQRPPRLPRPRPRPGRFPRP, 0.363.
For RRIRKRPPRLPRPRPRPEGEPRP, the “shrunken log2 fold change” value was -0.0225.
In the case of RRIRTRPPRLPRPRPRPRCAPRP it was 0.0538; in that of RRIRQRPPRLPRPRPRPSFGPRP, 0.0622; in that of RRIRHRPPRLPRPRPRPDTLPRP, 0.00779.
Take RRIRDRPPRLPRPRPRPFVIPRP: the “shrunken log2 fold change” value is 0.129.
With RRIRFRPPRLPRPRPRPLNEPRP, the “shrunken log2 fold change” value is -0.226.
With RRIRFRPPRLPRPRPRPQTFPRP the figure was -0.127; with RRIRKRPPRLPRPRPRPEYIPRP, -0.367; with RRIRPRPPRLPRPRPRPINRPRP, -0.11.
Consider RRIRQRPPRLPRPRPRPDMLPRP, for which the “shrunken log2 fold change” value worked out at 0.0939.
As for RRIRPRPPRLPRPRPRPNKRPRP, the “shrunken log2 fold change” value was -0.101.
With RRIRTRPPRLPRPRPRPRYKPRP the figure was -0.909; with RRIRPRPPRLPRPRPRPFHCPRP, -0.297; with RRIRRRPPRLPRPRPRPQANPRP, 0.118.
In the case of RRIRSRPPRLPRPRPRPARLPRP it was 0.0986.
In the case of RRIRERPPRLPRPRPRPIQLPRP it was -0.446.
On to RRIRYRPPRLPRPRPRPDPQPRP, for which the “shrunken log2 fold change” value is -0.0137.
RRIRGRPPRLPRPRPRPCPEPRP: the “shrunken log2 fold change” value was -0.0446.
With RRIRIRPPRLPRPRPRPCYRPRP the figure was -0.44; with RRIRQRPPRLPRPRPRPGRHPRP, 0.0349.
On to RRIRIRPPRLPRPRPRPFPTPRP, for which the “shrunken log2 fold change” value was 0.0232.
In the case of RRIRPRPPRLPRPRPRPGTHPRP it was -0.017; in that of RRIRFRPPRLPRPRPRPRKFPRP, 0.171.
In the case of RRIRNRPPRLPRPRPRPISAPRP it was -0.0545.
With RRIRERPPRLPRPRPRPLVIPRP, the “shrunken log2 fold change” value was -0.169.
In the case of RRIRIRPPRLPRPRPRPLTSPRP it was -0.188; in that of RRIRIRPPRLPRPRPRPEYYPRP, -0.198.
In the case of RRIRHRPPRLPRPRPRPTRYPRP, the “shrunken log2 fold change” value is -0.453.
For the sequence RRIRNRPPRLPRPRPRPCDYPRP, the “shrunken log2 fold change” value is -0.00992.
On to RRIRIRPPRLPRPRPRPRDTPRP, for which the “shrunken log2 fold change” value is -0.534.
In the case of RRIRKRPPRLPRPRPRPFVAPRP, the “shrunken log2 fold change” value stood at 0.115.
In the case of RRIRLRPPRLPRPRPRPACYPRP it was -0.202; in that of RRIRHRPPRLPRPRPRPMPWPRP, -0.032.
With RRIRMRPPRLPRPRPRPWEEPRP the figure was 0.317; with RRIRLRPPRLPRPRPRPMTGPRP, -0.0115; with RRIRQRPPRLPRPRPRPVIYPRP, -0.0661.
With RRIRKRPPRLPRPRPRPKGLPRP the figure was -0.00973; with RRIRVRPPRLPRPRPRPGWPPRP, 0.433.
Regarding RRIRQRPPRLPRPRPRPRKPPRP, the “shrunken log2 fold change” value was determined as 0.0318.
In the case of RRIRERPPRLPRPRPRPLFQPRP it was -0.271; in that of RRIRNRPPRLPRPRPRPIVRPRP, 0.0133.
In the case of RRIRCRPPRLPRPRPRPRDHPRP it was 0.197.
With RRIRRRPPRLPRPRPRPMICPRP the figure was -0.0373; with RRIRERPPRLPRPRPRPNIHPRP, -0.637.
With RRIRNRPPRLPRPRPRPIQVPRP, the “shrunken log2 fold change” value is -0.0304.
With RRIRTRPPRLPRPRPRPRIMPRP the figure was -0.254.
As for RRIRIRPPRLPRPRPRPKWLPRP, the “shrunken log2 fold change” value was 0.0546.
For RRIRCRPPRLPRPRPRPVLYPRP, the “shrunken log2 fold change” value was -0.432.
In the case of RRIRFRPPRLPRPRPRPELIPRP it was -0.308; in that of RRIRTRPPRLPRPRPRPYHAPRP, -0.236.
RRIRNRPPRLPRPRPRPPFGPRP: the “shrunken log2 fold change” value came out at 0.291.
With RRIRHRPPRLPRPRPRPLHHPRP the figure was -0.554.
Take RRIRCRPPRLPRPRPRPIACPRP: the “shrunken log2 fold change” value was -0.285.
Consider RRIRERPPRLPRPRPRPVHEPRP, for which the “shrunken log2 fold change” value was -0.00127.
With RRIRHRPPRLPRPRPRPSRIPRP the figure was 0.111.
Turning to RRIRYRPPRLPRPRPRPAHRPRP, the “shrunken log2 fold change” value was 0.0479.
In the case of RRIRYRPPRLPRPRPRPVFVPRP it was -0.458; in that of RRIRVRPPRLPRPRPRPLRSPRP, 0.132.
In the case of RRIRMRPPRLPRPRPRPQGEPRP it was -0.0117; in that of RRIRTRPPRLPRPRPRPRQEPRP, 0.0565; in that of RRIRARPPRLPRPRPRPTEDPRP, 0.269.
In the case of RRIRFRPPRLPRPRPRPLKSPRP it was -0.307.
Take RRIRYRPPRLPRPRPRPNCVPRP: the “shrunken log2 fold change” value was -0.0116.
With RRIRKRPPRLPRPRPRPWFDPRP the figure was -0.0566; with RRIRPRPPRLPRPRPRPEFWPRP, 0.583; with RRIRFRPPRLPRPRPRPFSYPRP, -0.777.
In the case of RRIRNRPPRLPRPRPRPDLVPRP it was -0.15; in that of RRIRTRPPRLPRPRPRPHKAPRP, -0.0306.
In the case of RRIRNRPPRLPRPRPRPNVCPRP it was 0.00455; in that of RRIRGRPPRLPRPRPRPNPIPRP, 0.0839; in that of RRIRGRPPRLPRPRPRPGSRPRP, 0.565.
For RRIRYRPPRLPRPRPRPPHCPRP, the “shrunken log2 fold change” value is -0.396.
In the case of RRIRGRPPRLPRPRPRPAVIPRP it was 0.232; in that of RRIRWRPPRLPRPRPRPYCPPRP, -0.441.
In the case of RRIRDRPPRLPRPRPRPPRKPRP it was 0.758.
RRIRYRPPRLPRPRPRPAGWPRP: the “shrunken log2 fold change” value came out at 0.366.
In the case of RRIRLRPPRLPRPRPRPDRAPRP it was 0.0122.
With RRIRYRPPRLPRPRPRPEAKPRP the figure was -0.109.
In the case of RRIRQRPPRLPRPRPRPGLGPRP it was 0.492; in that of RRIRCRPPRLPRPRPRPALEPRP, -0.00844.
Take RRIRPRPPRLPRPRPRPDKSPRP: the “shrunken log2 fold change” value is -0.442.
With RRIRARPPRLPRPRPRPEQMPRP the figure was 1.06.
